From US20120329986A1
Numbered stars: 1 amine (or outer) side, 2 acyl side, 3 side chain; on linkers, the order of the positions; unused ones are H or OH. Square brackets hold non-standard residues; d marks the D form. Primed or numbered codes have the meaning given here. Ends that are not written are not given here. dTrp(2-Me) = Cc1[nH]c2ccccc2c1C[C@@H](N)C(=O)O; azaPhe = O=C(N(Cc1ccccc1)N[*:1])[*:2]; azaLeu = CC(C)CN(N[*:1])C(=O)[*:2]; azaTyr′ = not defined here; HAIC = not defined here; azaGly = NNC(=O)O; Mpa = O=C(O)CCS

B1: CP-3(iv) (peptide)
peptide: A[dW]A[azaPhe][dF]K-NH2
modifications: N-terminus assumed
SMILES: C[C@H](N)C(=O)N[C@H](Cc1c[nH]c2ccccc12)C(=O)N[C@@H](C)C(=O)NN(Cc1ccccc1)C(=O)N[C@H](Cc1ccccc1)C(=O)N[C@@H](CCCCN)C(N)=O
B2: CP-2B(i) (peptide)
peptide: H[dW][azaLeu]W[dF]A-NH2
modifications: N-terminus assumed
SMILES: CC(C)CN(NC(=O)[C@@H](Cc1c[nH]c2ccccc12)NC(=O)[C@@H](N)Cc1c[nH]cn1)C(=O)N[C@@H](Cc1c[nH]c2ccccc12)C(=O)N[C@H](Cc1ccccc1)C(=O)N[C@@H](C)C(N)=O
B3: 3-MPA-LLHHDD-OH (peptide)
peptide: [Mpa]LLHHDD-OH
SMILES: CC(C)C[C@H](NC(=O)CCS)C(=O)N[C@@H](CC(C)C)C(=O)N[C@@H](Cc1c[nH]cn1)C(=O)N[C@@H](Cc1c[nH]cn1)C(=O)N[C@@H](CC(=O)O)C(=O)N[C@@H](CC(=O)O)C(=O)O
B4: 3-MPA-SHDSHD-OH (peptide)
peptide: [Mpa]SHDSHD-OH
SMILES: O=C(O)C[C@H](NC(=O)[C@H](Cc1c[nH]cn1)NC(=O)[C@H](CO)NC(=O)[C@H](CC(=O)O)NC(=O)[C@H](Cc1c[nH]cn1)NC(=O)[C@H](CO)NC(=O)CCS)C(=O)O
B5: 3-MPA-LHDLHD-OH (peptide)
peptide: [Mpa]LHDLHD-OH
SMILES: CC(C)C[C@H](NC(=O)CCS)C(=O)N[C@@H](Cc1c[nH]cn1)C(=O)N[C@@H](CC(=O)O)C(=O)N[C@@H](CC(C)C)C(=O)N[C@@H](Cc1c[nH]cn1)C(=O)N[C@@H](CC(=O)O)C(=O)O
B6: 3-MPA-DSDSD-OH (peptide)
peptide: [Mpa]DSDSD-OH
SMILES: O=C(O)C[C@H](NC(=O)[C@H](CO)NC(=O)[C@H](CC(=O)O)NC(=O)[C@H](CO)NC(=O)[C@H](CC(=O)O)NC(=O)CCS)C(=O)O
B7: 3-MPA-GGHHDD-OH (peptide)
peptide: [Mpa]GGHHDD-OH
SMILES: O=C(O)C[C@H](NC(=O)[C@H](CC(=O)O)NC(=O)[C@H](Cc1c[nH]cn1)NC(=O)[C@H](Cc1c[nH]cn1)NC(=O)CNC(=O)CNC(=O)CCS)C(=O)O
B8: 3-MPA-DHDHD-OH (peptide)
peptide: [Mpa]DHDHD-OH
SMILES: O=C(O)C[C@H](NC(=O)[C@H](Cc1c[nH]cn1)NC(=O)[C@H](CC(=O)O)NC(=O)[C@H](Cc1c[nH]cn1)NC(=O)[C@H](CC(=O)O)NC(=O)CCS)C(=O)O

The binders below were run against CD36 receptor (in the src-kinase cellular assay) (assay: cell-based or functional assay).

Row | Binder | SRC-kinase cellular assay EC50 [nM]
1 | H[dW]A[azaTyr′][dF]K-NH2 [DBG-178(27)] | 63
2 | B1 | 44
3 | H[dW][azaGly]W[dF]K-NH2 [CP-2A(v)] | 26
4 | B2 | > 10000

Each binder was assayed against recombinant soluble His-tagged CD36 (assay: SPR, His-tagged CD36 held on the Cu-NTA peptide monolayer, linear Langmuir plot).
Chain of recombinant soluble His-tagged CD36 (P16671 30-439): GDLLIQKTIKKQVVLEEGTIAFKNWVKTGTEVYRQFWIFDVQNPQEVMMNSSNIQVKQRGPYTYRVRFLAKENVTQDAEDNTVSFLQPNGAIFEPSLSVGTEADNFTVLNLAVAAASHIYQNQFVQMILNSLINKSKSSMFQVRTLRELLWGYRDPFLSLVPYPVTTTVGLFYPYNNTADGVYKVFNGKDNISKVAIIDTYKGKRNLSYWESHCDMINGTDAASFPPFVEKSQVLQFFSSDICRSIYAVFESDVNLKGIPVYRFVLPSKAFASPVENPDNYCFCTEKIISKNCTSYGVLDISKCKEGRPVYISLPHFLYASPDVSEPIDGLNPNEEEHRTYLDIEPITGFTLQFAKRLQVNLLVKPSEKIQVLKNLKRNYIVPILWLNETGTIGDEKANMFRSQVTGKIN

Row | Binder | Kd [nM]
5 | H[dW]A[azaTyr′][dF]K-NH2 [DBG-178(27)] | 22
6 | B1 | 380
7 | H[dW][azaGly]W[dF]K-NH2 [CP-2A(v)] | 44
8 | [HAIC][dTrp(2-Me)][dK]W[dF]K-NH2 (reading uncertain) [EP80317] | 82
9 | B2 | 1400

Each binder was assayed against nonspecific proteins present in blood serum (assay: SPR, mass of serum proteins adsorbed on the peptide self-assembled monolayer on gold).

Row | Binder | nonspecific adsorption (ΔΓnonspecific) [ng/cm^2]
10 | [Mpa]DDDSS [3-MPA-DDDSS] | 69
11 | B3 | 174
12 | B4 | 17
13 | [Mpa]SSSDD [3-MPA-SSSDD] | 23
14 | [Mpa]LLLHH [3-MPA-LLLHH] | 45
15 | B5 | 12
16 | [Mpa]GGGGD-OH (SMILES O=C(O)C[C@H](NC(=O)CNC(=O)CNC(=O)CNC(=O)CNC(=O)CCS)C(=O)O) [3-MPA-GGGGD-OH] | 218
17 | B6 | 34
18 | [Mpa]LLLDD [3-MPA-LLLDD] | 35
19 | [Mpa]DDDHH [3-MPA-DDDHH] | 56
20 | [Mpa]HHHSS [3-MPA-HHHSS] | 48
21 | [Mpa]LLLSS [3-MPA-LLLSS] | 39
22 | [Mpa]SSSHH [3-MPA-SSSHH] | 79
23 | [Mpa]HHHDD [3-MPA-HHHDD] | 32
24 | B7 | 149
25 | B8 | 274
